T1: GST-MP (MONOPTEROS / AUXIN RESPONSE FACTOR5) (Arabidopsis thaliana, UniProt P93024 1-902)
T1 sequence (looked up): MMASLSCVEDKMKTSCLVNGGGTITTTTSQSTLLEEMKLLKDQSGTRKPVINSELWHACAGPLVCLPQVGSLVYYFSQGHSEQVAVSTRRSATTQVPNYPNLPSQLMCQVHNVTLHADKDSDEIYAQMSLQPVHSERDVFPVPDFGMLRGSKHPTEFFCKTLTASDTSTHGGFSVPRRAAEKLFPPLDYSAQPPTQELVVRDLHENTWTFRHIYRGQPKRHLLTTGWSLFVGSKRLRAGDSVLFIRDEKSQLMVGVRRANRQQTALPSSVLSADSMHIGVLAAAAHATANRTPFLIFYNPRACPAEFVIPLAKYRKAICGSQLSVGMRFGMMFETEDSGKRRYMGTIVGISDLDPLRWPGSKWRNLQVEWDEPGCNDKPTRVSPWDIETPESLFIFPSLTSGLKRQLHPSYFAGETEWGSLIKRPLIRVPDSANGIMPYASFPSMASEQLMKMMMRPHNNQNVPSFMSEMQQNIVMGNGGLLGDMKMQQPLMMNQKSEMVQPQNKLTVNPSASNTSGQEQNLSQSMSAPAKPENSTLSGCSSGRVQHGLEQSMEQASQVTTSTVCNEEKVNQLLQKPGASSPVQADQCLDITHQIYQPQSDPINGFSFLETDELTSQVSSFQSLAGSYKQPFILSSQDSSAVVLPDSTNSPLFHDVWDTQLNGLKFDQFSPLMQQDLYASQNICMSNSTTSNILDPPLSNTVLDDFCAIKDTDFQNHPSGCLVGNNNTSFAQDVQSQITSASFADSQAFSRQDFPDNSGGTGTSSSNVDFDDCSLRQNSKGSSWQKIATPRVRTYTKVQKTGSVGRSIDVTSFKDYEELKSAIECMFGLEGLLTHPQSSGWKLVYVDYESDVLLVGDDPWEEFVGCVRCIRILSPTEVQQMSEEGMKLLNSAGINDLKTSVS


Biological target: T1, GST-MP (MONOPTEROS / AUXIN RESPONSE …)
Experiment: pull-down

binding result | Binder
binds | 6xHis-MBP-DRN (residues 1 to 200, protein-protein interaction domain) (domain or fragment) not shown
binds | 6xHis-MBP-DRNL (DORNROSCHEN-LIKE) (natural protein) not shown
